From article doi:10.1101/2025.10.03.680009

Assays:
[1] = target: GST-PreScission protease; assay: SEC
[2] = target: tag-free TbPEX6 (Trypanosoma brucei); assay: SEC
[3] = target: GST-TbPEX6 (full-length) (Trypanosoma brucei); assay: AlphaScreen or HTRF

GST-PreScission protease (enzyme)
stoichiometry N [1]: 2

His6-TbPEX15ΔTM (1-320aa) (domain or fragment)
stoichiometry N [2]: 1
Kd [3]: 10.3 nM

Tag-free TbPEX15ΔTM (1-320aa) (domain or fragment)
Kd [3]: 15.3 to 30.4 nM
